# Experimental data from patent publication US20230212587A1, “Mutant Hydroxyphenylpyruvate Dioxygenase Polypeptide, Encoding Gene Thereof and Use Therefor” (Beijing Dabeinong Biotechnology Co., Ltd., priority 2019, published 2023).
# Substitutions are numbered along the chain they refer to. In names and notes the source's numbering stands.
# B1: TaHPPD-02: native Triticum aestivum HPPD, SEQ ID NO: 39 (protein, listed as Triticum aestivum)
# chain: MPPTPTTPAATGAGAAAAVTPEHARPRRMVRFNPRSDRFHTLSFHHVEFWCADAASAAGRFAFALGAPLAARSDLSTGNSVHASQLLRSGNLAFLFTAPYANGCDAATASLPSFSADAARRFSADHGLAVRSIALRVADAAEAFRASVDGGARPAFSPVDLGRGFGFAEVELYGDVVLRFVSHPDGTDVPFLPGFEGVSNPGAVDYGLTRFDHVVGNVPELASAAAYVAGFTGFHEFAEFTTEDVGTAESGLNSMVLANNSEGVLLPLNEPVHGTKRRSQIQTFLEHHGGPGVQHIAVASSDVLRTLREMRARSAMGGFDFLPPPLPKYYEGVRRIAGDVLSEAQIKECQELGVLVDRDDQGVLLQIFTKPVGDRPTLFLEMIQRIGCMEKDERGEEYQKGGCGGFGKGNFSELFKSIEDYEKSLEAKQSAAVQGS
# modifications: TaHPPD Amino Acid Sequence
# B2: N2HPPD-02: native Sphingobium sp. N2 HPPD, SEQ ID NO: 153 (protein)
# chain: MTLFDNPLGLDGFEFVEFSAPAKGMLEPVFAAMGFVMIARHRSKDVQLWRQGGINLIANYEPRSPAAYFAAEHGPSACGMGWRVRNAAKAYELAVERGAEPVDVKTGPMELRLPAIRGIGGSIIYLIDRYEDEDGGLSIYDIDFVYEPGVDRHPEGAGFKIIDHLTHNVYGGRMAHWASFYERVFGFREIRYFDIKGEYTGLTSKAMTAPDGKIRIPLNEEGKAGGGQIEEFLRAYNGEGIQHIAFLCDDLIAAWDKLKALGTPLMTAPPATYYEMLDERLPGHGEPVAELQKRGILLDGSTQQGDPRLLLQIFGQATIGPVFFEFIQRKKDEGFGEGNFTALFESMERDQLRRGTLNAGESA
# modifications: N2HPPD Amino Acid Sequence (Sphingobacterium)
# B3: CyHPPD-02: native Cyanobacteria HPPD, SEQ ID NO: 141 (protein)
# chain: MEFDYLHLYVDDYQSAHRCYQRQWGFTCVNKIITDQGITGIYQQGQILLLISASESSLSRYADYLQKHPPGVGEVAWQVANWQKIQHQLSELQIETTPVIHPLTKAEGLTFLLWGDVHHSIYPVRSELNQNKTLHGVGLTTIDHVVLNIAADQFTQASQWYQQVFGWSVQQSFTVNTPHSGLYSEALASANGKVQFNLNCPTNNSSQIQTFLANNHGAGIQHVAFSTTSITRTVAHLRERGVNFLKIPTGYYQQQRNSSYFNYASLDWDTLQCLEILLDDQDNTGERLLLQIFSQPCYGVGTLFWEIIERRHRAKGFGQGNFQALYEAVETLEKQLEVP
# modifications: CyHPPD Amino Acid Sequence (Cyanobacteria)
# B4: CyHPPDm-F372A-02: Cyanobacteria HPPD mutant F372A, SEQ ID NO: 144 (protein)
# chain: B3 chain with F293A
# modifications: CyHPPDm-F372A Amino Acid Sequence
# B5: AhHPPDm-F372A-02: Arachis hypogaea HPPD mutant F372A, SEQ ID NO: 138 (protein)
# chain: MATAYTYAHAVTYCNSQHNPPIIPILSTNQHPPRVTLPSSIPHFISTITTFNLKHFPSHSLHTVMVTQTQQNAPSSSPELGFKLVGFKNFVRTNPKSDRFKVIRFHHVEFWCTDATNTASRFSWGLGMPIVAKSDLSTGNAVHASYLLRSGDLNFLFSAPYSASIAGDGASASFPSFSASDCHSFAAKHGLAVRAVAIEVEDASAAFSASVANGAKPVSPAVLLDNSVGFAEVHLYGDVVLRYISYSAPTRESNLNPTLRFLPGFEAVEADSSFPELDYGIRRLDHAVGNVPELAPAVNYLKKFTGFHEFAEFTAEDVGTSESGLNSVVLASNDEMVLLPLNEPVYGTKRKSQIETYLEHNEGAGLQHLALVSEDIFRTLREMRKRSTIGGFQFMPSPPPTYYRNLKKRAGDVLSDEQIKECEELGILVDRDDQGTLLQIATKPVGDRPTIFIEIIQRIGCMLKDEEGKVYQKGGCGGFGKGNFSELFKSIEEYEKTLESRRTA
# modifications: AhHPPDm-F372A Amino Acid Sequence
# B6: N1HPPD-02: native Sphingobium sp. N1 HPPD, SEQ ID NO: 147 (protein)
# chain: MAADSENPLGLHGFAFAEFTSPDPAAMARQFEQLGFVPAARRKDRGLTLYRQGRIAFILNAGEGEQASAFRAAHGPSANGMAFNVADAKAAHRHAIQSGATDADTAQSALPGTYAIEGIGDSLLYLVDSDPFADWDEVPGWREASAERGVGLDLLDHLTHNVRRGQMRVWSEFYATLFGFEEQKFFDIKGQATGLFSQAMIAPDHEIRIPLNESQDDNSQIEEFIREYNGEGIQHLALTTPDIYSTVEKLRANGVRLQDTIDTYYDLVDERVPGHGEDLARLRKNRILIDGDVHDEGLLLQIFTETMFGPIFFEIIQRKGNEGFGNGNFQVLYESIELDQIRRGVVTVDA
# modifications: N1HPPD Amino Acid Sequence (Sphingobacterium)
# B7: N1HPPDm-F372A-02: Sphingobium sp. N1 HPPD mutant F372A, SEQ ID NO: 150 (protein)
# chain: B6 chain with F303A
# modifications: N1HPPDm-F372A Amino Acid Sequence
# System: Arabidopsis thaliana T1 plants
# Assay: Topramezone tolerance of transgenic Arabidopsis thaliana T1 plants (pesticide damage grade by bleached leaf area, score, resistance evaluation)
# Type: in vivo
# Details: HPPDs from different species; number of plants (of 16) in this grade; topramezone 25 g ai/ha (1x), 7 DAT
# Summary of the method: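 Herbicide tolerance was judged per plant on a bleaching scale (grade 0 no bleaching to grade 3 fully bleached) 7 DAT. Topramezone doses were 0, 25, 50 and 100 g ai/ha on 18-day-old T1 and wild-type plants.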
Molecule,Classification and statistics of pesticide damage grade Grade 0,Classification and statistics of pesticide damage grade Grade 1,Classification and statistics of pesticide damage grade Grade 2,Classification and statistics of pesticide damage grade Grade 3
B1,0,0,0,16
B2,0,1,15,0
B3,0,0,0,0
B4,1,14,1,0
B5,2,12,2,0
B6,2,12,1,1
B7,16,0,0,0

# Same assay, conditions: HPPDs from different species; number of plants (of 16) in this grade; topramezone 100 g ai/ha (4x), 7 DAT
Molecule,Classification and statistics of pesticide damage grade Grade 0,Classification and statistics of pesticide damage grade Grade 1,Classification and statistics of pesticide damage grade Grade 2,Classification and statistics of pesticide damage grade Grade 3
B1,0,0,0,16
B2,0,0,0,16
B3,0,0,0,0
B4,0,1,15,0
B5,0,0,10,6
B6,0,4,8,4
B7,16,0,0,0

# Same assay, conditions: HPPDs from different species; score for pesticide damage 0-100; topramezone 25 g ai/ha (1x), 7 DAT
row,Molecule,Scores
1,B1,100
2,B2,65
3,B3,16
4,B4,33
5,B5,33
6,B6,35
7,B7,0

# Same assay, conditions: HPPDs from different species; score for pesticide damage 0-100; topramezone 100 g ai/ha (4x), 7 DAT
row,Molecule,Scores
1,B1,100
2,B2,100
3,B3,16
4,B4,65
5,B5,79
6,B6,67
7,B7,0

# Same assay, conditions: HPPDs from different species; topramezone 25 g ai/ha (1x), 7 DAT
row,Molecule,Resistance evaluation
1,B1,non-resistant (non-resistant plants (scores 68-100))
2,B2,poorly resistant (poorly resistant plants (scores 34-67))
3,B3,non-resistant (non-resistant plants (scores 68-100))
4,B4,moderately resistant (moderately resistant plants (scores 16-33))
5,B5,moderately resistant (moderately resistant plants (scores 16-33))
6,B6,poorly resistant (poorly resistant plants (scores 34-67))
7,B7,highly resistant (highly resistant plants (scores 0-15))

# Same assay, conditions: HPPDs from different species; topramezone 100 g ai/ha (4x), 7 DAT
row,Molecule,Resistance evaluation
1,B1,non-resistant (non-resistant plants (scores 68-100))
2,B2,non-resistant (non-resistant plants (scores 68-100))
3,B3,non-resistant (non-resistant plants (scores 68-100))
4,B4,poorly resistant (poorly resistant plants (scores 34-67))
5,B5,non-resistant (non-resistant plants (scores 68-100))
6,B6,poorly resistant (poorly resistant plants (scores 34-67))
7,B7,highly resistant (highly resistant plants (scores 0-15))
